Test results published in PMC7069974, “Single molecule analysis reveals monomeric XPA bends DNA and undergoes episodic linear diffusion during damage search”.
Where a chain is given by its changes, count along the chain named.

B1: ND37 (dsDNA)
DNA 1: CCGAGTCATTCCTGCAGCGAGTCCATGGGAGTCAAAT
DNA 2: ATTTGACTCCCATGGACTCGCTGCAGGAATGACTCGG
modifications: 5'-phosphate top strand
B2: AAF37 (dsDNA)
DNA 1: B1 DNA 1
DNA 2: B1 DNA 2
modifications: dG-C8-AAF at G14 of top strand; 5'-phosphate top strand
B3: CPD37 (dsDNA)
DNA 1: B1 DNA 1 with G21T
DNA 2: B1 DNA 2 with C17A
modifications: CPD T<>T at T21-T22 of top strand; 5'-phosphate top strand

Tests used:
Assay in all cases: EMSA; EMSA: 8 nM DNA, 20 mM HEPES pH 7.5, 150 mM NaCl, 5 mM DTT, 0.5 mg/ml BSA, 5% glycerol, 25 min at room temperature; gel 5% native, 0.5x TBE, 4 C. AFM: 100 nM DNA, 1-4 uM XPA (ND538)
Settings in all cases: protein: recombinant, tags: N-terminal His, label: 5'-6FAM on bottom strand, blunt
His-truncXPA-StrepII = His-truncXPA-StrepII (human, UniProt P23025 98-239)
His-truncXPA-StrepII, sequence (P23025 98-239): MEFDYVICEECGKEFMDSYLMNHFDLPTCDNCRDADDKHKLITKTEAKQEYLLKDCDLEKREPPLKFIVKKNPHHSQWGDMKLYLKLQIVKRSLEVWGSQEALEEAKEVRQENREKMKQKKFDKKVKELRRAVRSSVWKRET

His-flXPA-StrepII [1] = biological target: T1, His-flXPA-StrepII (human, UniProt P23025 1-273)
T1 sequence (P23025 whole entry): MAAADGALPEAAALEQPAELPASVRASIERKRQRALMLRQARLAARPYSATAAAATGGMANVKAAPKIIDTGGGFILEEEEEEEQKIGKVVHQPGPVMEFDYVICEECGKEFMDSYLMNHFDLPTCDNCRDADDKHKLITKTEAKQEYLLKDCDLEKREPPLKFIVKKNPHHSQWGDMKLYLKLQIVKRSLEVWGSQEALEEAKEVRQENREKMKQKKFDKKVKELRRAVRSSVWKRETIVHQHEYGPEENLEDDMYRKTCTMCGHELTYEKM

His-flXPA-StrepII [2] = biological target: T1, His-flXPA-StrepII; remark: listed apart in the source

| Binder | Kd (His-truncXPA-StrepII) [nM] | Kd (His-flXPA-StrepII [1]) [nM] | binding signal (His-flXPA-StrepII [2]) |
| --- | --- | --- | --- |
| B1 | 269 ± 22 | 253 ± 14 | – |
| B2 | 189 ± 9 | 109 ± 5 | – |
| B3 | 269 ± 24 | – | ~44 fold specificity for CPD over non-damaged DNA (Kd ratio x 37 sites) |
